What was measured:
[1] = target: TfR1 on human erythroleukemia TF-1 cells (human) (UniProt P02786); test: cell-based or functional assay
[2] = target: TfR1 protein stably expressed on CHO-K1-TfR1 cells (UniProt P02786); test: cell-based or functional assay
Sequence of TfR1 protein stably expressed on CHO-K1-TfR1 cells (P02786 whole entry): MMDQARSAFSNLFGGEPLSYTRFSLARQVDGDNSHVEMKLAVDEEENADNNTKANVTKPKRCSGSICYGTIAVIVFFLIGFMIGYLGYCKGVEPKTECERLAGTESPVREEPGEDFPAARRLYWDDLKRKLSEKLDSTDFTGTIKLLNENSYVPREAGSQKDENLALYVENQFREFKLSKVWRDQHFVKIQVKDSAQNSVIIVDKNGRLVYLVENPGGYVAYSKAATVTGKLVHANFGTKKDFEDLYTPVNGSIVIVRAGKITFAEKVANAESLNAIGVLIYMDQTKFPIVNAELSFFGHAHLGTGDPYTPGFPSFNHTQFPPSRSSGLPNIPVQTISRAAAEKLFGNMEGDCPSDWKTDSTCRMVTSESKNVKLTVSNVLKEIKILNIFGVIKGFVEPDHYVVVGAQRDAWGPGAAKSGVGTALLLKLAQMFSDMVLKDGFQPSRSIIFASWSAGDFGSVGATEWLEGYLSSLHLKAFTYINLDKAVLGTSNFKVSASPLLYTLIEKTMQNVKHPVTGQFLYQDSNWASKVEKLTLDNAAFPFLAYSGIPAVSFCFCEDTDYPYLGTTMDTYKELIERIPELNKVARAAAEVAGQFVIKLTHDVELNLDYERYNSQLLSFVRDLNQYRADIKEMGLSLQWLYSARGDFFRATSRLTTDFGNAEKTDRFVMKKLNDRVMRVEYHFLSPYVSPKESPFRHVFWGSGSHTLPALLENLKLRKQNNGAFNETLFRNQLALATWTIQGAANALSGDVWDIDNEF

Sequence of TfR1 on human erythroleukemia TF-1 cells (human) (P02786 whole entry): as above
Sequence of Tab4, pabinafusp alfa targeting humanized TfR1 (antibody) (VH): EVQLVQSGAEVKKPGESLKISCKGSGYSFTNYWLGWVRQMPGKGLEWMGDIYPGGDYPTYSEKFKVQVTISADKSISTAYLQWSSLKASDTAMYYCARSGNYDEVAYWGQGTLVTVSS
Sequence of Tab4, pabinafusp alfa targeting humanized TfR1 (antibody) (VL): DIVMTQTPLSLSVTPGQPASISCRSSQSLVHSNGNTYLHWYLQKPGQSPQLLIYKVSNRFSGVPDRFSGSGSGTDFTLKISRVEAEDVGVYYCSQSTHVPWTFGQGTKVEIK

Substance	TF-1 cell internalization, fold (MFI at 37° C. to MFI at 4° C.) [1] [fold]	TF-1 cell internalization, pHrodo label, 4° C. MFI (background value) [1] [MFI]	TF-1 cell internalization, pHrodo label, 37° C. MFI [1] [MFI]	CHO-K1-TfR1 internalization, fold (MFI at 37° C. to MFI at 4° C.) [2] [fold]	CHO-K1-TfR1 internalization, pHrodo label, 4° C. MFI (background value) [2] [MFI]	CHO-K1-TfR1 internalization, pHrodo label, 37° C. MFI [2] [MFI]
Tab4, pabinafusp alfa targeting humanized TfR1 (antibody)	1.83	712	1300	2.36	520	1230
hIgG isotype control (antibody)	1.01	471	476	1.53	464	711

— patent US20260217847A1
